Assay results from patent publication US20180327462A1.

Molecular target: SH2-GFP-tail substrate with the SH2 domain of human Abl1 (human; yeast) (UniProt P00519)
Assay: cell-based or functional assay

Chain of UniProt P00519 (P00519 other isoform, or with tags, fused parts or gaps, form in doubt): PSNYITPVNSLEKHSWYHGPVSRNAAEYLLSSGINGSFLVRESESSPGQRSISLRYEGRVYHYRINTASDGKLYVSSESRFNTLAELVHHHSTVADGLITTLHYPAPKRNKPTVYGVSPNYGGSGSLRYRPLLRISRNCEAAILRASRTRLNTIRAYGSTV

Substance “FLAG-hUbL-mB^HA4 (binding degradon; human Rad23b UbL domain fused N-terminally to the HA4 monobody) (from UniProt P54727 1-83) (designed binder)” has a substrate amount in cell lysate (SDS-PAGE, Typhoon fluorescence, ImageJ) of 4 fold.

In the case of “UbL-mB^HA4 degradon (yeast Rad23 UbL domain fused N-terminally to the HA4 monobody) (from UniProt P32628 1-77) (designed binder)”, the substrate turnovers per degradon molecule (10 nM degradon, varied substrate, GFP fluorescence) is reported as 5 times.
